Experiment [1] deals with human CTLA-4 (human) (UniProt P16410). In words: flow cytometry on CHO/CTLA-4 cells.
For experiment [2], the target named is human CD28 (endogenously expressed on primary human T cells) (human) (UniProt P10747). Nature of the experiment: flow cytometry, primary human T cells.
The target in experiment [3] is T1, human CD28 on cells (human, UniProt P10747 19-220). In words: flow cytometry, primary human T cells. As to the method: (§1) Binding affinity to CD28 was determined using primary human T cells which endogenously express CD28. Binding to PD-L1 was determined using SCC152 cells transduced with human PD-L1. Binding to CTLA-4 was measured using Chinese hamster ovary (CHO) cells stably transduced to express human CTLA-4.
(§2) For staining and analysis by flow cytometry, 75,000 human T cells, SCC152/PD-L1 cells, or CHO/CTLA-4 cells were plated in 96-well round-bottom plates. Cells were spun down and resuspended in staining buffer (PBS (phosphate buffered saline), 1% BSA (bovine serum albumin), 1 mM EDTA, and 0.1% sodium azide) for 20 minutes to block non-specific binding. Afterwards, cells were centrifuged, stain buffer aspirated, and then resuspended in 50 μL of a 1:5 serial dilution of each CD80-Fc candidate variant starting at 100 nM ending at 0.8 nM. Primary staining was performed on ice for 60 minutes, before washing cells in […] staining buffer three times. PE-conjugated anti-human Fc (Jackson ImmunoResearch, USA) was diluted 1:250 in 50 μL staining buffer and added to cells and incubated another 30 minutes at 4° C. Cells were washed two times in 150 μL stain buffer and then fixed in 2% formaldehyde/PBS for 5 minutes at room temperature. Samples were analyzed CytoFLEX LX flow cytometer (Beckman Coulter, USA). Median Fluorescence Intensity (MFI) was calculated for each cell type using the CytExpert software from Beckman Coulter.
(§3) Binding assays were carried out to assess the specificity and affinity of multivalent proteins to cell-expressed CTLA-4, CD28, and PD-L1 counter structures.

The target in experiment [4] is T1, human CD28 on cells. Nature of the experiment: cell-based or functional assay.
For experiment [5], the target named is T2, human PD-L1 (human, UniProt Q9NZQ7 19-290).
T2 construct: whole, on cells
Nature of the experiment: flow cytometry, SCC152 cells transduced with human PD-L1, anti-human Fc detection. The procedure: as §1, §2, §3

Experiment [6] deals with T2, human PD-L1. In words: flow cytometry, SCC152 cells transduced with human PD-L1; MFI against WT CD80 ECD-Fc. As to the method: as §1, §2, §3
In experiment [7] the target is T3, human CTLA-4 on CHO cells (human, UniProt P16410 36-223).
T3 construct: whole, on cells; also called CHO/CTLA-4
In words: flow cytometry, CHO/CTLA-4 cells. The procedure:
as §1, §2, §3
A general note: A flow cytometer gives signals particle by particle.

Changes are numbered by the printed parent chain. Names may count otherwise.

human CTLA-4 (human), sequence (P16410 36-223): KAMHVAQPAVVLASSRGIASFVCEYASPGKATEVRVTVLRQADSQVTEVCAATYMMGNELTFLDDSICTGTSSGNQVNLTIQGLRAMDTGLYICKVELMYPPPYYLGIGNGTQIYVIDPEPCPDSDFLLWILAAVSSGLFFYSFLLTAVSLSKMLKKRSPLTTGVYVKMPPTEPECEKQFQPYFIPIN
T3 sequence (P16410 36-223): as above
T2 sequence (Q9NZQ7 19-290): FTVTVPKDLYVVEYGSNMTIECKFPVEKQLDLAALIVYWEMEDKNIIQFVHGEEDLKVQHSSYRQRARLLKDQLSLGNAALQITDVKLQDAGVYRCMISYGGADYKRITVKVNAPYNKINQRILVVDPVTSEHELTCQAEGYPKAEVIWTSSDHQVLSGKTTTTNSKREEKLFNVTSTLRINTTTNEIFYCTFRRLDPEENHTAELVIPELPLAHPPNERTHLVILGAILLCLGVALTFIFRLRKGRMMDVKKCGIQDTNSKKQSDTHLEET

In experiment [1], “CD80_168 variant CD80 IgV-Fc (K9N, E10G, N63S, L85E) (Fc fusion)” displayed an MFI at 0.8 nM of 415 MFI, an MFI at 4 nM of 631 MFI, an MFI at 20 nM of 830 MFI and an MFI at 100 nM of 3160 MFI. Besides, the fold change vs WT CD80 at 20 nM in experiment [1] stood at 0 fold.
For the molecule “CD80_223-Fc, variant CD80 IgV-Fc E10S/V68M/Y87P (Fc fusion)”, in experiment [2], the MFI (anti-human Fc) at 0.8 nM is 190 MFI, the MFI (anti-human Fc) at 4 nM was found to be 195 MFI, the MFI (anti-human Fc) at 20 nM turned out to be 223 MFI and the MFI (anti-human Fc) at 100 nM turned out to be 318 MFI. The molecule further came in with a fold change of MFI vs WT CD80 at 20 nM in experiment [2] of 1.2 fold.
With “CD80_201-Fc, variant CD80 IgV-Fc E10G/H18Y/T28Y/M47W/T62S (Fc fusion)”, in experiment [2], the MFI (anti-human Fc) at 0.8 nM was determined as 199 MFI, the MFI (anti-human Fc) at 4 nM is 201 MFI and the MFI (anti-human Fc) at 20 nM is 254 MFI.
The corresponding values for “CD80_188-Fc, variant CD80 IgV-Fc E35D/V68L/L85E (Fc fusion)” are 201 MFI, 191 MFI and 224 MFI.
In experiment [3], WT CD80 ECD-Fc IgG4 (Fc fusion) displayed an Anti-Human Fc (MFI) at 0.8 nM of 178 MFI, an Anti-Human Fc (MFI) at 4 nM of 168 MFI, an Anti-Human Fc (MFI) at 20 nM of 180 MFI and an Anti-Human Fc (MFI) at 100 nM of 184 MFI. Besides, in experiment [4], the Rel. Luminescence Units (RLU) at 2 nM, K562/OKT3/PD-L1 + Jurkat/IL-2 reporter was 2830 RLU; the Rel. Luminescence Units (RLU) at 10 nM, K562/OKT3/PD-L1 + Jurkat/IL-2 reporter came to 2660 RLU; the Rel. Luminescence Units (RLU) at 50 nM, K562/OKT3/PD-L1 + Jurkat/IL-2 reporter turned out to be 2440 RLU; the Rel. Luminescence Units (RLU) at 250 nM, K562/OKT3/PD-L1 + Jurkat/IL-2 reporter is 2640 RLU.
As for “CD80_181-Fc, variant CD80 IgV-Fc K9S/E10R/V11Y/M47L/A71G (Fc fusion)”, in experiment [2], the MFI (anti-human Fc) at 4 nM amounted to 212 MFI and the MFI (anti-human Fc) at 100 nM amounted to 313 MFI.
In experiment [2], “CD80_196-Fc, variant CD80 IgV-Fc V11Y/M42W/E52K/T62A/L85E (Fc fusion)” had an MFI (anti-human Fc) at 0.8 nM of 245 MFI, an MFI (anti-human Fc) at 4 nM of 247 MFI, an MFI (anti-human Fc) at 20 nM of 274 MFI and an MFI (anti-human Fc) at 100 nM of 301 MFI. In experiment [2], the fold change of MFI vs WT CD80 at 20 nM came out at 1.5 fold.
The matching figures for “CD80_227-Fc, variant CD80 IgV-Fc V11W/T28H/D46Q/V68L/L85E (Fc fusion)”: 193 MFI, 209 MFI, 224 MFI, 283 MFI and 1.2 fold.
In experiment [2], “wild-type CD80 ECD-Fc (unmodified CD80 ECD fused to IgG4 Fc) (Fc fusion)” registered an MFI (anti-human Fc) at 0.8 nM of 178 MFI, an MFI (anti-human Fc) at 4 nM of 168 MFI, an MFI (anti-human Fc) at 20 nM of 180 MFI and an MFI (anti-human Fc) at 100 nM of 184 MFI.
Consider “CD80_194-Fc, variant CD80 IgV-Fc V11Y/M42W/T62A (Fc fusion)”, for which, in experiment [2], the MFI (anti-human Fc) at 0.8 nM was determined as 245 MFI, the MFI (anti-human Fc) at 4 nM came out at 246 MFI, the MFI (anti-human Fc) at 20 nM was found to be 262 MFI and the MFI (anti-human Fc) at 100 nM was found to be 298 MFI. The fold change of MFI vs WT CD80 at 20 nM in experiment [2] stood at 1.5 fold.

B1: CD80-Fc-CD80_338 (CD80_180 E10G/V11W/T28Y/M47L, IgG1 Fc) (Fc fusion)
chain: VIHVTKEVKGWATLSCGHNVSVEELAQYRIYWQKEKKMVLTMMSGDLNIWPEYKNRTIFDITNNLSIVILALRPSDEGTYECVVLKYEKDAFKREHLAEVTLSVKADGSGGGGSDKTHTCPPCPAPEAEGAPSVFLFPPKPKDTLMISRTPEVTCVVVDVSHEDPEVKFNWYVDGVEVHNAKTKPREEQYNSTYRVVSVLTVLHQDWLNGKEYKCKVSNKALPAPIEKTISKAKGQPREPQVYTLPPSRDELTKNQVSLTCLVKGFYPSDIAVEWESNGQPENNYKTTPPVLDSDGSFFLYSKLTVDKSRWQQGNVFSCSVMHEALHNHYTQKSLSLSPGGGGGSGGGGSGGGGSVIHVTKEVKGWATLSCGYNVSVEELAQYRIYWQKEKKMVLTMMSGDLNIWPEYKNRTIFDITNNLSIVILALRPSDEGTYECVVLKYEKDAFKREHLAEVTLSVKAD
notes: tetravalent
Turning to B1, in experiment [5], the “Anti-Human Fc (MFI) at 0.8 nM” value came out at 6250 MFI, the “Anti-Human Fc (MFI) at 4 nM” value is 9300 MFI, the “Anti-Human Fc (MFI) at 20 nM” value is 11000 MFI and the “Anti-Human Fc (MFI) at 100 nM” value stood at 12500 MFI. Besides, the “Fold change vs WT CD80 @20 nM” value in experiment [6] turned out to be 16.2 fold.

B2: CD80-Fc-CD80_338 (Fc fusion)
chain: B1 chain
Regarding B2, in experiment [3], the “Anti-Human Fc (MFI) at 0.8 nM” value is 552 MFI, the “Anti-Human Fc (MFI) at 4 nM” value stood at 926 MFI, the “Anti-Human Fc (MFI) at 20 nM” value came to 1350 MFI and the “Anti-Human Fc (MFI) at 100 nM” value worked out at 2330 MFI. In experiment [7], the “Anti-Human Fc (MFI) at 0.8 nM” value was determined as 367000 MFI, the “Anti-Human Fc (MFI) at 4 nM” value was found to be 439000 MFI, the “Anti-Human Fc (MFI) at 20 nM” value is 470000 MFI and the “Anti-Human Fc (MFI) at 100 nM” value worked out at 511000 MFI.

B3: CD80-Fc-CD80_339 (Fc fusion)
chain: VIHVTKEVKEYATLSCGHNVSVEELAQYRIYWQKEKKMVLTMMSGDLNIWPEYKNRTIFDITNNLSIVILALRPSDEGTYECVVLKYEKDAFKREHLAEVTLSVKADGSGGGGSPCPPCPAPEFLGGPSVFLFPPKPKDTLMISRTPEVTCVVVDVSQEDPEVQFNWYVDGVEVHNAKTKPREEQFNSTYRVVSVLTVLHQDWLNGKEYKCKVSNKGLPSSIEKTISKAKGQPREPQVYTLPPSQEEMTKNQVSLTCLVKGFYPSDIAVEWESNGQPENNYKTTPPVLDSDGSFFLYSRLTVDKSRWQEGNVFSCSVMHEALHNHYTQKSLSLSLGGGGGSGGGGSGGGGSVIHVTKEVKEYATLSCGYNVSVEELAQYRIYWQKEKKMVLTMMSGDLNIWPEYKNRTIFDITNNLSIVILALRPSDEGTYECVVLKYEKDAFKREHLAEVTLSVKAD
notes: also called CD80_185 V11Y/T28Y/M47L barbell
For the molecule B3, in experiment [3], the “Anti-Human Fc (MFI) at 0.8 nM” value was determined as 520 MFI, the “Anti-Human Fc (MFI) at 4 nM” value is 793 MFI, the “Anti-Human Fc (MFI) at 20 nM” value worked out at 1020 MFI and the “Anti-Human Fc (MFI) at 100 nM” value turned out to be 1380 MFI. Besides, in experiment [7], the “Anti-Human Fc (MFI) at 0.8 nM” value was 210000 MFI, the “Anti-Human Fc (MFI) at 4 nM” value stood at 305000 MFI, the “Anti-Human Fc (MFI) at 20 nM” value was 322000 MFI and the “Anti-Human Fc (MFI) at 100 nM” value came to 320000 MFI.

B4: CD80-Fc-CD80_341 (Fc fusion)
chain: B3 chain with Y28T, E35D, L47M, Y87Q, T101R, Y379T, E386D, L398M, Y438Q, T452R
notes: also called CD80_197 V11Y/E35D/Y87Q/T101R barbell
Turning to B4, in experiment [3], the “Anti-Human Fc (MFI) at 0.8 nM” value worked out at 676 MFI, the “Anti-Human Fc (MFI) at 4 nM” value turned out to be 1070 MFI, the “Anti-Human Fc (MFI) at 20 nM” value was found to be 1410 MFI and the “Anti-Human Fc (MFI) at 100 nM” value was found to be 1740 MFI. Besides, in experiment [3], the “Fold change vs WT CD80 @20 nM” value was determined as 7.8 fold. In addition, in experiment [4], the “Fold Increase over WT at 50 nM” value was found to be 6.42 fold; the “Rel. Luminescence Units (RLU) at 2 nM, K562/OKT3/PD-L1 + Jurkat/IL-2 reporter” value is 13100 RLU; the “Rel. Luminescence Units (RLU) at 10 nM, K562/OKT3/PD-L1 + Jurkat/IL-2 reporter” value was found to be 16000 RLU; the “Rel. Luminescence Units (RLU) at 50 nM, K562/OKT3/PD-L1 + Jurkat/IL-2 reporter” value came out at 15700 RLU. Besides, in experiment [4], the “Rel. Luminescence Units (RLU) at 250 nM, K562/OKT3/PD-L1 + Jurkat/IL-2 reporter” value amounted to 15200 RLU. Moreover, in experiment [7], the “Anti-Human Fc (MFI) at 0.8 nM” value turned out to be 206000 MFI, the “Anti-Human Fc (MFI) at 4 nM” value amounted to 280000 MFI, the “Anti-Human Fc (MFI) at 20 nM” value turned out to be 297000 MFI and the “Anti-Human Fc (MFI) at 100 nM” value was 282000 MFI. For the same molecule, the “Fold change vs WT CD80 @20 nM” value in experiment [7] came to 0.36 fold.

(Values after patent US20250243260A1 (ALPINE IMMUNE SCIENCES, published 2025).)
